Assay: soluble fraction after stress (log2 fold change); higher = more stays soluble; pooled small domains, quantitative proteomics
Conditions: stress: pH 4
Method in brief: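 How much of each domain stays soluble after acid stress, expressed as a fold change, is used to gauge aggregation propensity. Pooled custom libraries of small domains underwent pH 4 stress before high-throughput quantitative proteomics. A higher log2 value means more of the domain stayed soluble.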

HMNITFAENIKQFRKAKSMSMEELGKRLGKAKSSISAWENGKRTPKINELKSISEALGVTISQLLGF
soluble fraction (log2): -0.293

HMNIYIEFGRRLAFIRQNSKLSQSQIAQKLNIAQSTYAGYEKGVRKIPLEIIVQLSKILNISPTILILG
soluble fraction (log2): -0.618

HMNKADFLRKLDRELSVLDQEERKEILSFYEERFYTGTNYENKTELDIINELENPEIIAKNVLEEYGV
soluble fraction (log2): -1.45

HMNKDEFLRRLEDALSGEVPASVIRENLNYYADYLSQELGKGRTMDEIIEEIGEPNIVARTIINSAEAA
soluble fraction (log2): -0.602

HMNKDWQDEVALQRYTMITPLLSEDLDNAKRIAMREKIAQDNLTTARSLYRYEKAYRENGFQGLRPTD
soluble fraction (log2): -0.262

HMNKEIEDYVATYSSMKAKEAAAIFDTMTSDLDLVAKILEAMSADDRAKILEQMNEENAARLTKMMD
soluble fraction (log2): -0.654

HMNKEQIASNIAEARKRSGLNQSELARRLGIRPQSVQQWEKGTATPKLDRLTAIAQVLGVSLESLTG
soluble fraction (log2): 0.22

HMNKFADLAGNIIYNENGVEVFNFGKYKGQPVAEVFKKDIGYYGWIQNADFPRYTKKVFTAIQLKSK
soluble fraction (log2): -0.0985

HMNKIDVVEVDMSKPYEDMTVTELQNVILGKLASNGPVTDQMKKDVAENIYHDSLVNWAKSF
soluble fraction (log2): -0.303

HMNKIENLSQTILNILRKDHSQAFNYKQIAAKLQLDDPSSRNQIVKKLKDLQGKGTIQEIERGKYILTP
soluble fraction (log2): ≥ 0.43

HMNKITIDQAKEIALNHAKLTAEQVSFIRTESEFDDGIEKYNIEFYYNNQKYDYDINAVNGQIIQYDLEG
soluble fraction (log2): -0.23

HMNKITIEEAKSIALKHSNLDESQVSFIRSEYDFDNGIEKYEIEFYYNNNKYEYEINAKTGDIISYDYDI
soluble fraction (log2): -0.528

HMNKKAAYKDMAGYFAEMKSKDAADILSRLKDEDIIGIFNEMPRDMVAEMLQKMDRDKATTLTRKML
soluble fraction (log2): 0.235

HMNKKEQYQNIISNFLEKMSEEDRLIFNMHFFKSINISQIARSIDREGYYVKTKIENLLADLKSLMIGNNL
soluble fraction (log2): -1.17

HMNKKETRLNNFIHFLKIRNSITVKEMANHLNVSEMTVRRDIKELTADHTINFENGKIMFNPQSSL
soluble fraction (log2): 0.33

HMNKLIIDAAEDKIFFMIMNNDISYNISHENTKINFEKLIILINDFLSSKKLKINDITGLYV
soluble fraction (log2): -0.233

HMNKNIKIPNISNLSREDAESVLKESGISVSTEIKEVESDTIEKGKVVKTEPSIGSTVKQGRTITIYISSG
soluble fraction (log2): 0.092

HMNKRYKVQVTTDNLKIRKGAGTSYPVVGHITDKGTYTIVETSGKWGKLLSGAGWIYLSYTKK
soluble fraction (log2): 0.22

HMNKTEIISILEKIVLPTQIRNINIFGSEVIIDLNIDNPSLHAKKKLEKSIINSFDKNHKIIINFNVE
soluble fraction (log2): -0.514

HMNKTLTEQIYDELKSAIIELELKPGEFVTEEYLAEQLGVSRTPLKSAISKLIFEGLMAYEVGKGTYIS
soluble fraction (log2): -1.32

HMNKVQTFIIEKHIKEVFEHTNRTYYRSGQYYFQTRDEFSMALKRFLKDREPNKKNWIDSIINRA
soluble fraction (log2): 0.195

HMNKYQFESKIHIYRATKRMTQQELADLVGVSRQTIMQLERNRYNPSMMLAYGIAKVFDVTIEDLFDFSEV
soluble fraction (log2): 0.0457

HMNKYYQQLLQADPTGFIDPFKDLGTYDSRLNTFKEPVSELLNPFSGRPYSKIWQKRIETMREIFISYIKS
soluble fraction (log2): -0.213

HMNLDVEQIKKEALNQLIEIGNENDGIVTIKDFKKIDDISSLDEDDIEDIRNLLIENNIEIFE
soluble fraction (log2): -0.641

HMNLEQTIVLGKRLFNNALDTLGKKQRSIKNKQINKLLELLNFKNMNELYQSIGVGDKNPLLMAQMML
soluble fraction (log2): -0.045

HMNLESNQYVIDISDSQVINKDEFETILNQNKTKDIVIKSNNNVTFTFEKGSMIGAEGKDNYDFSSQVNY
soluble fraction (log2): -0.588

HMNLFNEIEKQYQALQDRSSASLVDLRHLLLDIEELVNSPDYQALAPDQRSTLQAARKELMRRIQKQEN
soluble fraction (log2): -0.193

HMNLGDSLFHARRKQGLSQEAVAEQLGVSRQTVSKWEANETLPDIRQSKLMAKLYHTSLDELI
soluble fraction (log2): 0.138

HMNLLDYTTLYVTSDGKSVSFGIAGKEIPVSYIAQEAPGTVVIDDTIRIPRKYDMEYILKRFNES
soluble fraction (log2): -1.33

HMNLLGDNIRKLRLEKGLGLNEVARLANITGGYLSSIENNKRTNVGTEILESIAKAIGVSVSDFYL
soluble fraction (log2): -0.0496

HMNLLGERIREIRMEMGLTAKELAQRASVTPGYISQIEHDQIKPSMNVMMRIAEVLNVPMAALLM
soluble fraction (log2): ≥ 0.43

HMNLLPAGTYKLKDLVTAEDEEIGAKKGDVVIAHEDTPPSDRVLGVDIFPVIHKNTSKKIYVSLEDI
soluble fraction (log2): 0.101

HMNLMQIHVARPPNQLGVFSQEEVAAGLQSGRFLPTDQAWRDGMSAWTPLSQWAEFSSVVAAV
soluble fraction (log2): -0.307

HMNLNLDITTYKLEELENLLKLKPNYKQEQIFEAKTKMEKFILKSNLNESKREELYIFLDNIYNKLTNNLL
soluble fraction (log2): -1.34

HMNLPISDREKELLTLLSKGLLYKEIASKLDITIGTVKQHIHNIYHKLHVSNKTEALNLFNK
soluble fraction (log2): 0.172

HMNLRLKEVLDEKNMSLVTLSEKTGIEKGNLSAISNNKKNPTVETLSKIAKALQISLAELFESPP
soluble fraction (log2): 0.169

HMNLSDIETWLRELSLEKYALAFSEAEIDFETLPELTEDDLKEVGLPVGPRRKVWGAIQLLRTTD
soluble fraction (log2): -1.37

HMNLSNVVIRKVQEMILSGELQEGDKLPPEREMTQRLGIGRPALREGLKSLEMLGLVERRHGLGNFIINKV
soluble fraction (log2): -0.475

HMNLSPADFSSVRNALGLSLSTVAKESGINRNYLSNFEKKKHFLEETAKVKLRDYYMSIDPDAFAAAL
soluble fraction (log2): -0.291

HMNLVGGKINSLMTTKNVTIQDLSERSGLTVSQIELLLSGDKVPSLAVLIKIARGLGVRVGTFL
soluble fraction (log2): -0.156

HMNLVRQHTDYAFRLLVALSQAPGKPISTRTLASAADVPYQFASKIMQKLHEEGLVESVMGPFGGFRLVQ
soluble fraction (log2): -0.419

HMNLWIDNTQVINDWTEGASERSGSIYLTAGVKPIKMQYFDSVLNAKAILRWQGPGINKSVVPSSALTPG
soluble fraction (log2): -0.209

HMNMEDIADKIGRLYDNLPDDLKLMIKYRDIDDMTYDEIARKANLPIGTVRSRLHRARDILLREI
soluble fraction (log2): -0.108

HMNMFGIQRRNHLLSLLQEKKSITVQEAAVIFEVAEETIRRDFRTMEGQGLIVRTHGGALLADD
soluble fraction (log2): -1.14

HMNMMIIHVNGEKYSFQEPITISELILKLELDSRKIAIEYNLEILPRSLFEITSIKNGDKIEIVHFI
soluble fraction (log2): -0.892

HMNMPYGTVKWFNDAKGFGFIAPEDGSADVFVHFSAINSKGFRSLQEGQRVSYEVTTGPKGAQAAGVTPVT
soluble fraction (log2): -0.91

HMNMYTVTGRLVDQDGVPQANALVTIDSSSQQTRTSPQGFYLIKVFGTEPSTIKFLVDGYDPQIVNFTP
soluble fraction (log2): -0.278

HMNNDIDRVFAELTVLSQKKGYLVFDDIEKGTEDLSVNEVDWLTNRLLTSGVEIFDDVPDTIK
soluble fraction (log2): -1.81

HMNNDSQYLATLQRYYAEHRVLPSYARMLPLLGFASKAAVKKVLERLEVVGMLERTEDGDWAPSERFFER
soluble fraction (log2): 0.0419

HMNNGYSINEIAKLMKMTLKVVRRYVASGELKTTKTNNTYSISEEAFNEFKKYIEEGGDAKHAQEVADTFK
soluble fraction (log2): -0.554

HMNNIGENIKKYRTKQGLSQEDFAKKSGVKYTTLTKIESGVIKKPSVLVMAKIAKALGVNIEELI
soluble fraction (log2): ≥ 0.43

HMNNIINEAQIKQWVEEFYLSVSPRPTRATMIALVHKKIKEETKDGEEGQTVSETLINNFYTALEKEHKRK
soluble fraction (log2): 0.22

HMNNIPFIITDERLNVIQSHLVPREVLDHPDRLRRQIDRFTEENQPKTVNYWWGPEHRHIIFYGKSK
soluble fraction (log2): 0.281

HMNNIYFSPVVEENNKGLRLDKFLAASFPEFSRSQLQRLILEGNVSNDDVVIADNSQKVRVGDSFQVIVPE
soluble fraction (log2): -0.0304

HMNNKSDLLFNHLRQRIATMENGTIFPSVRQLMTEYNVSQSTVSTAIRSLKELGLLEALSRQGMVVRKE
soluble fraction (log2): 0.104

HMNNLGSKIKELRIAENLTQEKLAEELNVSFQSISRWENGISTPDISLIPAIARFFGVSTDYLFGLQD
soluble fraction (log2): -1.03

HMNNLPDFIKQLRKENNLTQEYVASEIGVSRPTYEQIEKGKRELTISEAEKLAKIFNIPLENFLQGKKGV
soluble fraction (log2): -0.0996

HMNNPLPDLLKYFRKKKHLTQEQVAKQLSVSRASYASYETGRIIPGMQHIMELSRILEHDFLFAYTLAVQ
soluble fraction (log2): -0.446

HMNNPNFAIQKYVTGSDIKRVRKTLRLTQKKFAELVGVSKATMERWETKEDKITGPVVLLLKILEDHPEY
soluble fraction (log2): -0.0904

HMNNQKATAVKVASGIVNLRSGPATSYETLDTVATGETLSVLAEKDGWFQVSRAGRTGWVAGWVVDVIRE
soluble fraction (log2): -0.586

HMNNSSIGERLKYQRKIKGYSQEELADRTNVTVRTIQRIEKEEVSPHLNTIKLLAIALDIEVDELVAL
soluble fraction (log2): -1.18

HMNNSVAYSTFLNDIRTNTLKDVDMTSNSETINVTKKDGTKYQTVMPMYDRDLLADLSKTDATVTGQP
soluble fraction (log2): -0.155

HMNNTIKFSVDIKNSGKRLDIFLSENVTQYTRSYLKRLIENSHVKLNNKILNSPSTKVKFQDQIIINNIE
soluble fraction (log2): 0.0707

HMNNTIKFSVDTTNSGKRLDIFLAENIKQFTRSYLKKIISNNQVKLNNLVANSPSIKVKHSDLILINILE
soluble fraction (log2): -0.62

HMNNTVLSSVKSINMFLDANGGDAGQAFRIYNNTNPDSNPTESTYIFKVAEDGNTFVKGYLNLNGTTL
soluble fraction (log2): 0.378

HMNNVRIEHIDTIGTVRLHKKRGVKRVSLRIHQSGEIRVTQPLYLPFSAGVLFAKSHTEWIMKQKQK
soluble fraction (log2): 0.0224

HMNNWRRSLEREVTASLARGDRDIFDGLNRSFEAALITKALEHTGGRRIEAATLLGIGRNTLTRKIQDLGL
soluble fraction (log2): -0.79

HMNNYEGIVKSVSNSNVYIQVAGRTIGYTISPHTIIMVNGKNVPASELMPGQHVSYTNKGSKLSYININS
soluble fraction (log2): 0.205

HMNNYFPAYKGSATSIAPALKQMGVNNSYAYRSKIAAVNNITGYRGTPAQNTQMLNLLKQGRLIK
soluble fraction (log2): -0.156

HMNNYNDSVQKIINYIADNLNENLSVRKLADKMPMSVSHFNRVFQKYTGDSPYAYVMAMRIKKAKYL
soluble fraction (log2): -0.565

HMNPAIYIRKNILNLTQEKLSEYLDVTQPTIHRWEESGVIPAKHQRQIREFASEKGIYWNDSWFFSIPDE
soluble fraction (log2): -1.2

HMNPDMIAGVLKVPAAAGRLRSALFELGVVDDESYDDDGASRLTVTASQSDLERIVAQAGLVFEDVLVERR
soluble fraction (log2): -1.3

HMNPEAFIQTLKQILSTYEKNDPIYLQEIKADLVKKFRIEIPINALETYLKENGYSNIYLKR
soluble fraction (log2): -0.516

HMNPEDLSGVRKAAILLLTMDDEVTKDVMKGLDEEEIEAIGKEITNLKLIPDHVVHRVQEEFMTKVSK
soluble fraction (log2): -0.375

HMNPESRRSELIDAATKLFFSRGYTATSIRDILDAVDDRTASPSVFYYYFESKEAIYQAVLQRYTD
soluble fraction (log2): -1.34
